Reference: patent US20210063414A1, “METHODS FOR PREVENTING AND/OR TREATING BONE LOSS CONDITIONS BY MODULATING IRISIN” (Dana-Farber Cancer Institute, Inc., priority 2018, published 2021)

Biological target: T1, MLO-Y4 cell surface proteins (Mus musculus, UniProt P70388)
T1 construct: endogenous in cells; host or cells: MLO-Y4
T1 sequence (P70388 1-1312): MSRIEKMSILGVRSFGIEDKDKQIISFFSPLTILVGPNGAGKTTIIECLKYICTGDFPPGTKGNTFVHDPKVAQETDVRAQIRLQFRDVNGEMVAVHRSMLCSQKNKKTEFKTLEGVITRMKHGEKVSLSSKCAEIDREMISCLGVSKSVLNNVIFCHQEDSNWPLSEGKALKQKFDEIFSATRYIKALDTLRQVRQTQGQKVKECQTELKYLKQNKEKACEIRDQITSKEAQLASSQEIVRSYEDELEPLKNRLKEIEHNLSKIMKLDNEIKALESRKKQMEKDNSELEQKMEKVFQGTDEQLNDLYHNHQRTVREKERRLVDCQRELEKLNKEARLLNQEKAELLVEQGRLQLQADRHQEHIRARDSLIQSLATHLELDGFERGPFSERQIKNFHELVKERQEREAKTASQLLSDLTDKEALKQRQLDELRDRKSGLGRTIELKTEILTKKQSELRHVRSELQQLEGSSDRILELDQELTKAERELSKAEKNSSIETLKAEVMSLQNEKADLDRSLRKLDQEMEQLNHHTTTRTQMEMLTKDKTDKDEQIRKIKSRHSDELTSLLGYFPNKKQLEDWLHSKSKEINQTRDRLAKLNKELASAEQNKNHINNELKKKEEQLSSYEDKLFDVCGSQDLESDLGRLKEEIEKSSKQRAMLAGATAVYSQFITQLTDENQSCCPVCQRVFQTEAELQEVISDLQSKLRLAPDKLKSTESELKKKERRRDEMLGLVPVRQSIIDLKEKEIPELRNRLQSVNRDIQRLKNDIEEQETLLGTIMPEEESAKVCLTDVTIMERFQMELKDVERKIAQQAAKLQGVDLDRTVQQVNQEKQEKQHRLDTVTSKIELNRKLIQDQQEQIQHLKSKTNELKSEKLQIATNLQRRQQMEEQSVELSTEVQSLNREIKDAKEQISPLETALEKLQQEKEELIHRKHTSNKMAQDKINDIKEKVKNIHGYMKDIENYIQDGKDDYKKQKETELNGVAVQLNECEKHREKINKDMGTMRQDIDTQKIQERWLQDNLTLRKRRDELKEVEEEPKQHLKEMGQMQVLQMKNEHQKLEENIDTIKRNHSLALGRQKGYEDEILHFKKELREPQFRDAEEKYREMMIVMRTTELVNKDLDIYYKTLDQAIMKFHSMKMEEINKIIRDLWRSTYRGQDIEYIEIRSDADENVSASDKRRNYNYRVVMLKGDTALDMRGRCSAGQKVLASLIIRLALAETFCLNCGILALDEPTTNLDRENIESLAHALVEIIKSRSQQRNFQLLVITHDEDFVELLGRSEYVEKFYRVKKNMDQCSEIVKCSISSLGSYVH
Assay: Crosslinking/co-immunoprecipitation/mass spectrometry (TMT quantitative proteomics) to identify irisin receptors
Type: binding
Details: co-precipitated protein Rad50 (RAD50_MOUSE)
Summary of the method: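 Mouse MLO-Y4 cells were switched to serum-free FreeStyle medium for 4 h, chilled, then exposed to 10 nM His-tagged irisin (or adipsin as control) for 20 min. Cells were crosslinked with 1.5 mM DTSSP (30 min, ice), and bound proteins were pulled down on Ni-NTA and eluted with 250 mM imidazole. Eluates were separated by SDS-PAGE, trypsin-digested in gel, TMT 6-plex labelled and quantified by MS3-based LC-MS/MS on an Orbitrap Fusion Lumos.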

B1: irisin: secreted cleaved form of FNDC5; recombinant human/mouse irisin with C-terminal his tag produced in HEK293 cells (protein)
chain: DSPSAPVNVTVRHLKANSAVVSWDVLEDEVVIGFAISQQKKDVRMLRFIQEVNTTTRSCALWDLEEDTEYIVHVQAISIQGQSPASEPVLFKTPREAEKMASKNKDEVTMKE
modifications: left off: small tags and cut ends
notes: secreted cleaved form of FNDC5; recombinant human/mouse irisin with C-terminal his tag produced in HEK293 cells
B1 was tested, and the TMT signal-to-noise ratio was 10.8209 and the “irisin/adipsin TMT signal-to-noise ratio” value was 0.026.
